Source: paper PMC12285911 (Nature Structural & Molecular Biology, 2025)

T1: ^FAMFAT10 (GG–FAT10 N-terminally labeled with fluorescein amidite by sortase) (human, 5-FAM on the N terminus (5-FAM conjugated to the N terminus of the peptide …, attached by sortase))
T1 construct: GG added to the N terminus of FAT10 for sortase labeling (scar left after Smt3 cleavage); also called GG–FAT10 (labeled); source: E. coli BL21*, purified; sortase-labeled, enriched on Ni-NTA, gel filtration; not shown: His, N-terminal, cleaved; Smt3, N-terminal, cleaved
T1 chain: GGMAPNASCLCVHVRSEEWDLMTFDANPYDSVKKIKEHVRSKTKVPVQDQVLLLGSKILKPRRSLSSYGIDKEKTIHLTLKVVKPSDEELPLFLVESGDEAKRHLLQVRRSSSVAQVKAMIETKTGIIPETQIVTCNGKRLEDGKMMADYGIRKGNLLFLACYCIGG

T2: FAT10 (human leukocyte antigen-F-adjacent transcript 10), wild type, full length, unlabeled (human)
T2 construct: also called wild-type FAT10; source: E. coli BL21*, purified (Ni-NTA, His–ULP1 cleavage, HiTrap SP, gel filtration); not shown: His, N-terminal, cleaved; Smt3, N-terminal, cleaved
T2 chain: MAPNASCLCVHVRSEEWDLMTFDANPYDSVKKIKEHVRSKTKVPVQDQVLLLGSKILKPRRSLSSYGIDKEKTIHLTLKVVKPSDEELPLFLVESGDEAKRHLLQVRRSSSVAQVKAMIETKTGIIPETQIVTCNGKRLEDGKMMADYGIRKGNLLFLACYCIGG


Tests used:
Conditions in all cases: both partners purified
[1] = biological target: T1, ^FAMFAT10 (GG–FAT10 N-terminally …); assay: fluorescence polarisation; kinetics: ^FAMFAT10 (20 nM) mixed with NUB1 (250–4,000 nM), polarisation over time, single exponentials, kobs against NUB1 concentration, kon by linear regression; 30 °C
[2] = biological target: T2, FAT10 (human leukocyte …); assay: SEC; NUB1 (50 µM) incubated with FAT10 (75 µM) for 30 min on ice, Superdex 200 Increase 10/300; the single complex peak was pooled and run on SEC–MALS (60 mM HEPES pH 7.4, 50 mM NaCl, 50 mM KCl, 5% glycerol, 10 mM MgCl2, 0.5 mM TCEP)
[3] = biological target: T3, Rpn1 (proteasomal receptor subunit of the 19S regulatory particle) (human (endogenous in HEK293), UniProt Q13200 1-908); assay: cryo-EM structure; hs26S proteasome mixed with preincubated (20 min) FAT10–Eos + NUB1 complex in 20 mM HEPES pH 7.4, 25 mM NaCl, 25 mM KCl, 5 mM MgCl2, 2 mM ATP, for 30 s or 60 s before plunge-freezing; nonprocessing and processing states
T3 construct: Rpn1, subunit of the human 26S proteasome; stood in the experiment as a subunit of the whole hs26S proteasome; also called proteasomal Rpn1 subunit; source: endogenous, within the hs26S proteasome purified from HEK293 cells
T3 sequence (Q13200 whole entry): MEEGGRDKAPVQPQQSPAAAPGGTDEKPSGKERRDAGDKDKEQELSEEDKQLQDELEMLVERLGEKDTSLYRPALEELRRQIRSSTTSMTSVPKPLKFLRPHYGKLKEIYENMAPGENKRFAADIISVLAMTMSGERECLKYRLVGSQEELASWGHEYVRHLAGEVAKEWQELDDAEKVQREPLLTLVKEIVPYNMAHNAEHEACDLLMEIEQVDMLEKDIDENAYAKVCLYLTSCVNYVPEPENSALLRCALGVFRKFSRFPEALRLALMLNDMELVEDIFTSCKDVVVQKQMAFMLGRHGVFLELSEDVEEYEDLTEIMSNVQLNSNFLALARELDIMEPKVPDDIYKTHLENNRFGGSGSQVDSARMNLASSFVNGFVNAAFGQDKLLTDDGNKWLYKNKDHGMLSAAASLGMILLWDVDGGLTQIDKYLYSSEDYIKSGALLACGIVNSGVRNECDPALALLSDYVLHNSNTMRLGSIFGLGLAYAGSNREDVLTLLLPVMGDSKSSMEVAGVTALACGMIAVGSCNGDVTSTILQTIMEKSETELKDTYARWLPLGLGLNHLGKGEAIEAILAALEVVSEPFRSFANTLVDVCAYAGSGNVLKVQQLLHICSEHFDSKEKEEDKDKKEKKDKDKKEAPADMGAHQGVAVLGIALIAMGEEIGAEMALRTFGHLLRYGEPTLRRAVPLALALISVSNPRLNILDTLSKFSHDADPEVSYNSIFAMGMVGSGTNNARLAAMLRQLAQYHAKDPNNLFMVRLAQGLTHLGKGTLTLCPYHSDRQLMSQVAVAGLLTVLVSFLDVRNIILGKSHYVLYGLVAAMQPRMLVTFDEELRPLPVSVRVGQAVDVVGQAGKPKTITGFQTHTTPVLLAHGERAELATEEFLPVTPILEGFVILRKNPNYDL

[4] = biological target: T1, ^FAMFAT10 (GG–FAT10 N-terminally …); assay: fluorescence polarisation; titration: ^FAMFAT10 (100 nM) incubated with varying NUB1 concentrations on ice (45 min by the legends, 30 min by the methods), polarisation read in a 384-well plate preheated to 30 °C; the Kd is called approximate (some aggregation at higher NUB1 concentrations)

Row | kon [1] | stoichiometry N [2] | binding result [3] | Kd [4] | binding result [4] | Binder
1 | 1600 ± 3000 M⁻¹ s⁻¹ | 1 | binds | 176 ± 6.8 nM |  | NUB1 (NEDD8 ultimate buster 1), wild type, full length (natural protein, overhang left at the N terminus after removal of GST by precision (3C) protease; the shorter isoform, not NUB1L; codon-optimised synthetic gene in pGEX-6P-1; also called wild-type NUB1; source: E. coli BL21*, purified (GSH resin, GST–3C protease cleavage, gel filtration); not shown: GST, N-terminal, cleaved) not shown
2 |  |  |  |  | binds | NUB1^Δ1–175 (domain or fragment, overhang left at the N terminus after removal of GST by precision (3C) protease; also called linker-trap domain; source: E. coli BL21*, purified (GSH resin, GST–3C protease cleavage, gel filtration); not shown: GST, N-terminal, cleaved) not shown
